US12076374B1, “Anti-microbial and anti-inflammatory compositions and methods for treating enteric diseases in animals” (Vets Plus, Inc., priority 2019, dated 2024)

Key:
Assay type in all cases: in vivo
Eimeria tenella = assay: E. tenella infection (coccidiosis) in broiler chickens, growth performance and oocysts
[1] = 28-d feeding trial in weaned pigs with diarrhea, fecal score and growth performance
Experimental: Weaning can be a stressful time for performance animals that are transitioning to new food and newly encountering enteric pathogens. These factors can result in diarrhea to varying degrees. The objective of this study was to evaluate the effect of supplementing dietary ovotransferrin of the invention to pigs that had slight diarrhea within a week upon weaning. Growth performance and fecal score were measured. […] Pigs with diarrhea were housed in the nursery pens with 3 pigs per pen and allowed free access to the diet and water ad-libitum for the entire experimental period. Then, they were treated with a solution mixed with electrolytes and ovotransferrin by drenching for 3 days. Ovotransferrin was produced as described in example 1. The pigs were fed test diets containing 0, 0.5, and 1.0% ovotransferrin of the invention. Body weight were recorded at day 0 (study initiation), day 7, 14, 21, and 28 postweaning. Average daily gain (ADG), average daily feed intake (ADFI) and gain:feed (G:F) ratio were calculated weekly from day 7-28 postweaning. Corn-soybean meal-based diets were used for 28 days with 2 phases (Phase 1: day 0-14 postweaning and Phase 2: day 15-28 postweaning). Ovotransferrin was added to the diets by replacing corn starch proportionally. Fecal score was recorded daily through day 14. Body weight and feed consumption were recorded weekly for the diarrhea pigs.

gut microbiome = assay: Fecal 16S rRNA microbiome analysis of newly weaned piglets with diarrhea
Description: The microbiome of newly weaned piglets with diarrhea was examined when treated with components of the invention. Fecal samples of N=3 control (C) newly weaned piglets without diarrhea (D) and for N=6 newly weaned piglets that did have diarrhea were examined. 3 of these piglets with diarrhea were randomly selected and treated (T3) with 2.5 grams/piglet/day with ovotransferrin by mixing the ovotransferrin into dry feed for 5 consecutive days. Fecal samples were taken from the Diarrhea pigs, the Treated piglets and Control piglets after 5 days trial.
Fecal samples then had DNA was extracted using the PowerSoil DNA extraction kit (QIAGEN). Extracted DNA was then sequenced where the V4 variable region of the bacterial 16S rRNA gene was amplified (Primers 515F and 806R) and libraries constructed using a dual index approach1. 16SrRNA libraries were sequenced on a MiSeq V3 instrument (Illumina), targeting 2×300 PE reads. Bioinformatics occurred by processing of amplicons that was based on protocols that rely on several open-source software (FastQC2, cutadapt3, bbmap4 and the DADA25 plugin within QIIME26) to remove adaptors and primer sequences, merge PE reads, filter out low quality reads and generate counts of unique Amplicon Sequence Variants (ASVs) or unique taxonomic groups that represent the abundance of species and/or strains in each sample. […]

PEDV = PEDV newborn piglets, dose response of ovotransferrin drench with or without ORS; settings: for % Survival: 100 ml drench twice daily, after 5 days
[2] = 0.5% ovotransferrin in diet, d 7-14
[3] = 0.5% ovotransferrin in diet, d 7-28
[4] = 0.5% ovotransferrin in diet, d 14-21
[5] = 0.5% ovotransferrin in diet, d 21-28
[6] = 1% ovotransferrin in diet, d 7-14
[7] = 1% ovotransferrin in diet, d 7-28
[8] = 1% ovotransferrin in diet, d 14-21
[9] = 1% ovotransferrin in diet, d 21-28

B1: ovotransferrin (protein, UniProt P02789 20-705, looked up)
Ovotransferrin: APPKSVIRWCTISSPEEKKCNNLRDLTQQERISLTCVQKATYLDCIKAIANNEADAISLDGGQAFEAGLAPYKLKPIAAEVYEHTEGSTTSYYAVAVVKKGTEFTVNDLQGKTSCHTGLGRSAGWNIPIGTLLHRGAIEWEGIESGSVEQAVAKFFSASCVPGATIEQKLCRQCKGDPKTKCARNAPYSGYSGAFHCLKDGKGDVAFVKHTTVNENAPDQKDEYELLCLDGSRQPVDNYKTCNWARVAAHAVVARDDNKVEDIWSFLSKAQSDFGVDTKSDFHLFGPPGKKDPVLKDLLFKDSAIMLKRVPSLMDSQLYLGFEYYSAIQSMRKDQLTPSPRENRIQWCAVGKDEKSKCDRWSVVSNGDVECTVVDETKDCIIKIMKGEADAVALDGGLVYTAGVCGLVPVMAERYDDESQCSKTDERPASYFAVAVARKDSNVNWNNLKGKKSCHTAVGRTAGWVIPMGLIHNRTGTCNFDEYFSEGCAPGSPPNSRLCQLCQGSGGIPPEKCVASSHEKYFGYTGALRCLVEKGDVAFIQHSTVEENTGGKNKADWAKNLQMDDFELLCTDGRRANVMDYRECNLAEVPTHAVVVRPEKANKIRDLLERQEKRFGVNGSEKSKFMMFESQNKDLLFKDLTKCLFKVREGTTYKEFLGDKFYTVISSLKTCNPSDILQMCSFLEGK
Eimeria tenella; 0.5% ovotransferrin in feed day 7 through 21, Day 7
  Weight (g) in chickens infected with E. tenella: 110 ± 5 g
Eimeria tenella; 0.5% ovotransferrin in feed, Day 14 (day of infection)
  Weight (g) in chickens infected with E. tenella: 283 ± 10 g
Eimeria tenella; 0.5% ovotransferrin in feed, Day 21
  Weight (g) in chickens infected with E. tenella: 470 ± 15 g
Eimeria tenella; 1.0% ovotransferrin in feed, Day 7
  Weight (g) in chickens infected with E. tenella: 115 ± 6 g
Eimeria tenella; 1.0% ovotransferrin in feed, Day 14
  Weight (g) in chickens infected with E. tenella: 293 ± 14 g
Eimeria tenella; 1.0% ovotransferrin in feed, Day 21
  Weight (g) in chickens infected with E. tenella: 529 ± 22 g
Eimeria tenella; 2.0% ovotransferrin in feed, Day 7
  Weight (g) in chickens infected with E. tenella: 115 ± 6 g
Eimeria tenella; 2.0% ovotransferrin in feed, Day 14
  Weight (g) in chickens infected with E. tenella: 293 ± 14 g
Eimeria tenella; 2.0% ovotransferrin in feed, Day 21
  Weight (g) in chickens infected with E. tenella: 571 ± 15 g
Eimeria tenella; as compared with positive infected control, *p<0.01
  Oocysts count in fecal sample: significantly lower
Eimeria tenella; cecum samples at end of experiment, versus positive infected control
  Histopathology of cecum: normal structures of cecal epithelium
Eimeria tenella; given alone in feed
  E. tenella infection: inhibited E. tenella infection
Eimeria tenella; treated groups, E. tenella infected broiler chickens
  Feed conversion rate: higher
[1]; 0.5% ovotransferrin in diet, d 0-7, scale ≤1 normal to 4 liquid, severe diarrhea
  Fecal score: 1.81
[1]; 0.5% ovotransferrin in diet, d 0-14 (Phase 1), scale ≤1 normal to 4 severe diarrhea
  Fecal score: 1.80
[1]; 0.5% ovotransferrin in diet, d 0-28 (Overall), scale ≤1 normal to 4 severe diarrhea
  Fecal score: 1.68
[1]; [2]
  ADFI (average daily feed intake): 581.17 g/day
  ADG (average daily gain): 356.06 g/day
  G:F (gain:feed ratio): 0.613
[1]; 0.5% ovotransferrin in diet, d 7-14, scale ≤1 normal to 4 severe diarrhea
  Fecal score: 1.79
[1]; [3]
  ADFI (average daily feed intake): 868.33 g/day
  ADG (average daily gain): 540.76 g/day
  G:F (gain:feed ratio): 0.623
[1]; 0.5% ovotransferrin in diet, d 7 postweaning
  Body weight: 7.87 kg
[1]; 0.5% ovotransferrin in diet, d 14
  Body weight: 10.37 kg
[1]; [4]
  ADFI (average daily feed intake): 933.98 g/day
  ADG (average daily gain): 566.02 g/day
  G:F (gain:feed ratio): 0.606
[1]; 0.5% ovotransferrin in diet, d 21
  Body weight: 14.33 kg
[1]; [5]
  ADFI (average daily feed intake): 1089.83 g/day
  ADG (average daily gain): 700.22 g/day
  G:F (gain:feed ratio): 0.643
[1]; 0.5% ovotransferrin in diet, d 28
  Body weight: 19.23 kg
[1]; 1% ovotransferrin in diet, d 0-7, scale ≤1 normal to 4 severe diarrhea
  Fecal score: 1.57
[1]; 1% ovotransferrin in diet, d 0-14 (Phase 1), scale ≤1 normal to 4 severe diarrhea
  Fecal score: 1.61
[1]; 1% ovotransferrin in diet, d 0-28 (Overall), scale ≤1 normal to 4 severe diarrhea
  Fecal score: 1.58
[1]; 1% ovotransferrin in diet, d 7
  Body weight: 7.61 kg
[1]; [6]
  ADFI (average daily feed intake): 654.76 g/day
  ADG (average daily gain): 496.75 g/day
  G:F (gain:feed ratio): 0.759
[1]; 1% ovotransferrin in diet, d 7-14, scale ≤1 normal to 4 severe diarrhea
  Fecal score: 1.64
[1]; [7]
  ADFI (average daily feed intake): 1043.29 g/day
  ADG (average daily gain): 645.02 g/day
  G:F (gain:feed ratio): 0.618
[1]; 1% ovotransferrin in diet, d 14
  Body weight: 11.09 kg
[1]; [8]
  ADFI (average daily feed intake): 1084.42 g/day
  ADG (average daily gain): 584.42 g/day
  G:F (gain:feed ratio): 0.539
[1]; 1% ovotransferrin in diet, d 21
  Body weight: 15.18 kg
[1]; [9]
  ADFI (average daily feed intake): 1390.69 g/day
  ADG (average daily gain): 853.90 g/day
  G:F (gain:feed ratio): 0.614
[1]; 1% ovotransferrin in diet, d 28
  Body weight: 21.16 kg
Gut microbiome; 2.5 grams/piglet/day in dry feed for 5 consecutive days, fecal samples
  Microbiome diversity (Shannon index, Bray-Curtis PCoA): brought the microbiome diversity back to levels similar to the control piglets
Gut microbiome; 2.5 grams/piglet/day in dry feed for 5 days, indicator species analysis
  Abundance of Veilloneaceae, Entreobacteriaceae, Paraprevotellaceae and Treponema: Reductions to the initial control baselines
PEDV; 2 grams of ovotransferrin in water
  % Survival: 40%
PEDV; 2 grams of ovotransferrin, Day 0
  Defecations/day/group: 30 Defecations/day/group
PEDV; 2 grams of ovotransferrin, Day 1
  Defecations/day/group: 18 Defecations/day/group
PEDV; 2 grams of ovotransferrin, Day 3
  Defecations/day/group: 14 Defecations/day/group
PEDV; 2 grams of ovotransferrin, Day 5
  Defecations/day/group: 12 Defecations/day/group
PEDV; 5 grams of ovotransferrin in water
  % Survival: 60%
PEDV; 5 grams of ovotransferrin, Day 0
  Defecations/day/group: 26 Defecations/day/group
PEDV; 5 grams of ovotransferrin, Day 1
  Defecations/day/group: 18 Defecations/day/group
PEDV; 5 grams of ovotransferrin, Day 3
  Defecations/day/group: 15 Defecations/day/group
PEDV; 5 grams of ovotransferrin, Day 5
  Defecations/day/group: 12 Defecations/day/group
